Experimental findings from patent US20260258113 are described below.

In the data set the target is alpha globin, endogenous, in perfused human omental arteries, P69905.
alpha globin, endogenous, in perfused human omental arteries, P69905, sequence (P69905 2-142): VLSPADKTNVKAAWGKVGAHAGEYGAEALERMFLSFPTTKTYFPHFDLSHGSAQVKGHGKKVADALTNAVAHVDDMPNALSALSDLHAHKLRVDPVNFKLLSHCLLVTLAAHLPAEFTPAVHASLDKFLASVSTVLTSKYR

B1: endothelial nitric oxide synthase (eNOS), endogenous, in human resistance arteries (protein)
chain: GNLKSVAQEPGPPCGLGLGLGLGLCGKQGPATPAPEPSRAPASLLPPAPEHSPPSSPLTQPPEGPKFPRVKNWEVGSITYDTLSAQAQQDGPCTPRRCLGSLVFPRKLQGRPSPGPPAPEQLLSQARDFINQYYSSIKRSGSQAHEQRLQEVEAEVAATGTYQLRESELVFGAKQAWRNAPRCVGRIQWGKLQVFDARDCRSAQEMFTYICNHIKYATNRGNLRSAITVFPQRCPGRGDFRIWNSQLVRYAGYRQQDGSVRGDPANVEITELCIQHGWTPGNGRFDVLPLLLQAPDDPPELFLLPPELVLEVPLEHPTLEWFAALGLRWYALPAVSNMLLEIGGLEFPAAPFSGWYMSTEIGTRNLCDPHRYNILEDVAVCMDLDTRTTSSLWKDKAAVEINVAVLHSYQLAKVTIVDHHAATASFMKHLENEQKARGGCPADWAWIVPPISGSLTPVFHQEMVNYFLSPAFRYQPDPWKGSAAKGTGITRKKTFKEVANAVKISASLMGTVMAKRVKATILYGSETGRAQSYAQQLGRLFRKAFDPRVLCMDEYDVVSLEHETLVLVVTSTFGNGDPPENGESFAAALMEMSGPYNSSPRPEQHKSYKIRFNSISCSDPLVSSWRRKRKESSNTDSAGALGTLRFCVFGLGSRAYPHFCAFARAVDTRLEELGGERLLQLGQGDELCGQEEAFRGWAQAAFQAACETFCVGEDAKAAARDIFSPKRSWKRQRYRLSAQAEGLQLLPGLIHVHRRKMFQATIRSVENLQSSKSTRATILVRLDTGGQEGLQYQPGDHIGVCPPNRPGLVEALLSRVEDPPAPTEPVAVEQLEKGSPGGPPPGWVRDPRLPPCTLRQALTFFLDITSPPSPQLLRLLSTLAEEPREQQELEALSQDPRRYEEWKWFRCPTLLEVLEQFPSVALPAPLLLTQLPLLQPRYYSVSSAPSTHPGEIHLTVAVLAYRTQDGLGPLHYGVCSTWLSQLKPGDPVPCFIRGAPSFRLPPDPSLPCILVGPGTGIAPFRGFWQERLHDIESKGLQPTPMTLVFGCRCSQLDHLYRDEVQNAQQRGVFGRVLTAFSREPDNPKTYVQDILRTELAAEVHRVLCLERGHMFVCGDVTMATNVLQTVQRILATEGDMELDEAGDVIGVLRDQQRYHEDIFGLTLRTQEVTSRIRTQSFSLQERQLRGAVPWAFDPPGSDTNSP
As to B1, the “ROI average fluorescence lifetime after co-labelling with the alpha globin and eNOS antibodies (FLIM, FRET-like shift)” value was “the eNOS + HBA ROIs lie at about 2.9 to 3.6 ns, below HBA alone (about 3.6 to 4.2 ns) and eNOS alone (about 3.8 to 4.15 ns); p<0.0001 printed for both comparisons”; the “fluorescence lifetime histogram after co-labelling with the alpha globin and eNOS antibodies (FLIM, FRET-like shift)” value is “the co-labelled curve d (HBA + eNOS) peaks at about 3.95 ns, left of HBA only (b, about 4.2 ns), eNOS only (c, about 4.25 ns) and unstained (a, about 4.35 ns)”.
